Data taken from patent US20100129369A1 (Eli Lilly, published 2010).

Assays:
human c-Met [1] = molecular target: T1, human c-Met (human, UniProt P08581 25-1390); test: cell-based or functional assay
human c-Met [2] = molecular target: T1, human c-Met; test: cell-based or functional assay; remark: listed apart in the source
human c-Met [3] = molecular target: T1, human c-Met; test: cell-based or functional assay; remark: listed apart in the source
human c-Met [4] = molecular target: T1, human c-Met; test: cell-based or functional assay; remark: listed apart in the source
human c-Met [5] = molecular target: T1, human c-Met; test: cell-based or functional assay; remark: listed apart in the source
Rat c-Met-Flis-Fc ECD = molecular target: T2, Rat c-Met-Flis-Fc ECD (rat); test: SPR (Biacore), antibody captured
T2 construct: also called Rat cMet-ECD-Fc-Flis; rat c-Met ECD
Protocol: (§1) A Biacore® 2000 instrument is used to measure the binding kinetics of c-Met antibodies to human, cynomolgus monkey, and rat c-Met ECDs. Measurements are performed at 25° C. Samples are dissolved in HBS-EP buffer (150 mM sodium chloride, 3 mM EDTA, 0.005% (w/v) surfactant P-20, and 10 mM N-2-hydroxyethylpiperazine-N′-2-ethanesulfonic acid (HEPES) at pH 7.4; #BR-1001-88).
(§2) Binding is evaluated using multiple cycles. Each cycle is performed at a flow rate of 50 μL/min., and consists of the following steps: injection of about 10 μL of a c-Met antibody at 10 μg/mL aiming at a capture of 40-100 RUs, injection of 250 μL of human, cynomolgus, or rat c-Met-Flis-Fc ECD (starting at 100 nM and using two-fold serial dilutions for each cycle) followed by 20 min. for dissociation, and regeneration using about 30 μL of 10 mM glycine hydrochloride, pH 1.5. Association and dissociation rates for each cycle are evaluated using a “1:1 (Langmuir) binding” model in the BIAevaluation software, version 4.1.

mouse c-Met ECD = molecular target: T3, mouse c-Met ECD (mouse, UniProt P16056 25-931); test: ELISA, coated ECD (data not shown)
T3 construct: extracellular domain

Human c-Met-Flis-Fc ECD [6] = molecular target: T4, Human c-Met-Flis-Fc ECD (human); test: ELISA, coated ECD-Fc, antibody 0.000 ng/mL
T4 construct: also called human c-Met extracellular domain (ECD)-Fc-Flis fusion; Human cMet-ECD-Fc-Flis
Protocol: (§3) Wells of 96-well EIA/RIA high binding plates (Costar, #2592) are coated with 100 μL of 1 μg/mL human c-Met extracellular domain (ECD)-Fc-Flis fusion (SEQ ID NO:72), RON-ECD-Fc (R&D Systems, #1947-MS), or PlexinA2-ECD-Fc (Abnova, Taipei, Taiwan #H00005362-P01) in coating buffer (BioFX Labs, # COAT-1000-01) overnight at 4° C. […] After the plates are washed, 100 μL/well of substrate solution (BioFx, #TMBW-1000-01) are added and the plates are incubated for 10 min. at room temperature. 100 μL/well of stop solution (BioFx, # LSTP-1000-01) are added to stop the reaction. The colorimetric signals are developed and read at 450 nm using a SpectraMax 190 plate reader (Molecular Devices, Sunnyvale, Calif.). c-Met antibody binding to c-Met, RON and PlexinA2 ECDs is proportional to color signal production.

Human c-Met-Flis-Fc ECD [7] = molecular target: T4, Human c-Met-Flis-Fc ECD; test: ELISA, coated ECD-Fc, antibody 0.002 ng/mL
Protocol: as §3

Human c-Met-Flis-Fc ECD [8] = molecular target: T4, Human c-Met-Flis-Fc ECD; test: ELISA, coated ECD-Fc, antibody 0.010 ng/mL
Protocol: as §3

Human c-Met-Flis-Fc ECD [9] = molecular target: T4, Human c-Met-Flis-Fc ECD; test: ELISA, coated ECD-Fc, antibody 0.060 ng/mL
Protocol: as §3

Human c-Met-Flis-Fc ECD [10] = molecular target: T4, Human c-Met-Flis-Fc ECD; test: ELISA, coated ECD-Fc, antibody 0.357 ng/mL
Protocol: as §3

Human c-Met-Flis-Fc ECD [11] = molecular target: T4, Human c-Met-Flis-Fc ECD; test: ELISA, coated ECD-Fc, antibody 2.143 ng/mL
Protocol: as §3

Human c-Met-Flis-Fc ECD [12] = molecular target: T4, Human c-Met-Flis-Fc ECD; test: ELISA, coated ECD-Fc, antibody 12.860 ng/mL
Protocol: as §3

Human c-Met-Flis-Fc ECD [13] = molecular target: T4, Human c-Met-Flis-Fc ECD; test: ELISA, coated ECD-Fc, antibody 77.160 ng/mL
Protocol: as §3

Human c-Met-Flis-Fc ECD [14] = molecular target: T4, Human c-Met-Flis-Fc ECD; test: ELISA, coated ECD-Fc, antibody 462.963 ng/mL
Protocol: as §3

Human c-Met-Flis-Fc ECD [15] = molecular target: T4, Human c-Met-Flis-Fc ECD; test: ELISA, coated ECD-Fc, antibody 2777.778 ng/mL
Protocol: as §3

Human c-Met-Flis-Fc ECD [16] = molecular target: T4, Human c-Met-Flis-Fc ECD; test: ELISA, coated ECD-Fc, antibody 16666.667 ng/mL
Protocol: as §3

Human c-Met-Flis-Fc ECD [17] = molecular target: T4, Human c-Met-Flis-Fc ECD; test: ELISA, coated ECD-Fc, antibody 100000.000 ng/mL
Protocol: as §3

Human c-Met-Flis-Fc ECD [18] = molecular target: T4, Human c-Met-Flis-Fc ECD; test: SPR Biacore, antibody captured, ECD-Fc analyte, 1:1 model
Protocol: as §1, §2

[19] = molecular target: T5, Cynomolgus Monkey c-Met-Flis-Fc ECD (cynomolgus monkey); test: as above
T5 construct: also called Cynomolgus Monkey cMet-ECD-Fc-Flis; cynomolgus monkey c-Met ECD
Protocol: as §1, §2

T4 sequence (chain, as listed by the source limits assumed): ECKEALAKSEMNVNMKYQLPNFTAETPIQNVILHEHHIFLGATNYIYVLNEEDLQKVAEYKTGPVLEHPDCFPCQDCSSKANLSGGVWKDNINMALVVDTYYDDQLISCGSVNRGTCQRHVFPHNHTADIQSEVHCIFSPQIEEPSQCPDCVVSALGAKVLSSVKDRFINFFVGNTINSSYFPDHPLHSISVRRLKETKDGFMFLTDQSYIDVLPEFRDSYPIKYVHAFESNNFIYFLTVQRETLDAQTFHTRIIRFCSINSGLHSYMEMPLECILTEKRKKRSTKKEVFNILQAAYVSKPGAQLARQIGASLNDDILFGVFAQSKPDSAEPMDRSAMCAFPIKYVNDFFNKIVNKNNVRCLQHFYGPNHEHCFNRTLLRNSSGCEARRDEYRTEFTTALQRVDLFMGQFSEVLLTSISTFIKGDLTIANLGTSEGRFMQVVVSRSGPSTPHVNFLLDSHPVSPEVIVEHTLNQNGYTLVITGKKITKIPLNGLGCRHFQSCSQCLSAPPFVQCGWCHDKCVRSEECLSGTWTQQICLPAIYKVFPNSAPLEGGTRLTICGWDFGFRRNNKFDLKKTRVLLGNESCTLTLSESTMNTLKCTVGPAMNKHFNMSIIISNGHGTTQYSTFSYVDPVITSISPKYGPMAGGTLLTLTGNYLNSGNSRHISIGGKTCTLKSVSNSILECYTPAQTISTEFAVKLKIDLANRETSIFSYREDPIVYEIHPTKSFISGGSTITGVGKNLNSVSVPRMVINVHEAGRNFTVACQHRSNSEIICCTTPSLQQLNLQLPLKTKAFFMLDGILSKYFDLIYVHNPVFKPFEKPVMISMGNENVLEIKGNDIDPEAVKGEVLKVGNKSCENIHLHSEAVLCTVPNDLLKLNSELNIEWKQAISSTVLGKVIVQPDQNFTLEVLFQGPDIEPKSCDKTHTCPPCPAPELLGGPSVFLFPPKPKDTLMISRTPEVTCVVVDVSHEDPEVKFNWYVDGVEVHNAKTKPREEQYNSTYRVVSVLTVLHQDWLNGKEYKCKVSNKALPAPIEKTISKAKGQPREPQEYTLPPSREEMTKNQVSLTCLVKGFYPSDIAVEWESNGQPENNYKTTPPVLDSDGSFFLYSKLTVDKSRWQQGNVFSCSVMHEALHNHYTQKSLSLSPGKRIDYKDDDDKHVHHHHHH
T1 sequence (P08581 25-1390): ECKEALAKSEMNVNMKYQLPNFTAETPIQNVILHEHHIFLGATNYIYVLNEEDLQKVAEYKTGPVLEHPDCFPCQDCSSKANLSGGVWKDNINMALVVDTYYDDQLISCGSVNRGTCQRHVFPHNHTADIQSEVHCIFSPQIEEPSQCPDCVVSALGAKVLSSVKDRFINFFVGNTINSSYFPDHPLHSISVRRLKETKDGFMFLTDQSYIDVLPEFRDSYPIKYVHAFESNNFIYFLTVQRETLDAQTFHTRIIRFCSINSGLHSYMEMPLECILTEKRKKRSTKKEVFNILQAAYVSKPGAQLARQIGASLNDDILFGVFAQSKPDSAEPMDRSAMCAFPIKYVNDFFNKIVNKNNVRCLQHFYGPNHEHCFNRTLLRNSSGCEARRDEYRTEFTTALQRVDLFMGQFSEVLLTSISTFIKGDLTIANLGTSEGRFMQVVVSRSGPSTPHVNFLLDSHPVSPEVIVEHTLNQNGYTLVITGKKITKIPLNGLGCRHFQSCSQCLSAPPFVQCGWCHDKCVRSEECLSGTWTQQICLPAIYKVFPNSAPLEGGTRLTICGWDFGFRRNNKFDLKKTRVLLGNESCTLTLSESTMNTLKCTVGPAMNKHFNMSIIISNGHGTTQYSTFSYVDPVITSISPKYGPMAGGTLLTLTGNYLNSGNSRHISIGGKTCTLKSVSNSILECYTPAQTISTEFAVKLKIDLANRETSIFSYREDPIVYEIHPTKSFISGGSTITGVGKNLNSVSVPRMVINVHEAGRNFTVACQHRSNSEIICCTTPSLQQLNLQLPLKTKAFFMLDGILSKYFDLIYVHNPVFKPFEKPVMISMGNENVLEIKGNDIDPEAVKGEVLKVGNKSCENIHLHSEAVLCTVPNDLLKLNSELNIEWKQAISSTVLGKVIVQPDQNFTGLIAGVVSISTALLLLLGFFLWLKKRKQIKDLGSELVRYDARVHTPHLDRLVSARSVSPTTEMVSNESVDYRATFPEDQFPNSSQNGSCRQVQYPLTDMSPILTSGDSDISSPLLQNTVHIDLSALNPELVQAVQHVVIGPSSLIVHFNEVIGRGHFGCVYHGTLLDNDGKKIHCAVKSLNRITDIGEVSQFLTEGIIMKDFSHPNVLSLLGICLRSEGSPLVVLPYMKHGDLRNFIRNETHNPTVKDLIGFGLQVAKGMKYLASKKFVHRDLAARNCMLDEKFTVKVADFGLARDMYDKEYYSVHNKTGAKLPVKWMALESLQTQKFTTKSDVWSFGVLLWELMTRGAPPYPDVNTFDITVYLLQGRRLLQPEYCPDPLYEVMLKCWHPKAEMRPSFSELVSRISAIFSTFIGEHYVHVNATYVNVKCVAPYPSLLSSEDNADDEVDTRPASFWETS
T5 sequence (chain, as listed by the source limits assumed): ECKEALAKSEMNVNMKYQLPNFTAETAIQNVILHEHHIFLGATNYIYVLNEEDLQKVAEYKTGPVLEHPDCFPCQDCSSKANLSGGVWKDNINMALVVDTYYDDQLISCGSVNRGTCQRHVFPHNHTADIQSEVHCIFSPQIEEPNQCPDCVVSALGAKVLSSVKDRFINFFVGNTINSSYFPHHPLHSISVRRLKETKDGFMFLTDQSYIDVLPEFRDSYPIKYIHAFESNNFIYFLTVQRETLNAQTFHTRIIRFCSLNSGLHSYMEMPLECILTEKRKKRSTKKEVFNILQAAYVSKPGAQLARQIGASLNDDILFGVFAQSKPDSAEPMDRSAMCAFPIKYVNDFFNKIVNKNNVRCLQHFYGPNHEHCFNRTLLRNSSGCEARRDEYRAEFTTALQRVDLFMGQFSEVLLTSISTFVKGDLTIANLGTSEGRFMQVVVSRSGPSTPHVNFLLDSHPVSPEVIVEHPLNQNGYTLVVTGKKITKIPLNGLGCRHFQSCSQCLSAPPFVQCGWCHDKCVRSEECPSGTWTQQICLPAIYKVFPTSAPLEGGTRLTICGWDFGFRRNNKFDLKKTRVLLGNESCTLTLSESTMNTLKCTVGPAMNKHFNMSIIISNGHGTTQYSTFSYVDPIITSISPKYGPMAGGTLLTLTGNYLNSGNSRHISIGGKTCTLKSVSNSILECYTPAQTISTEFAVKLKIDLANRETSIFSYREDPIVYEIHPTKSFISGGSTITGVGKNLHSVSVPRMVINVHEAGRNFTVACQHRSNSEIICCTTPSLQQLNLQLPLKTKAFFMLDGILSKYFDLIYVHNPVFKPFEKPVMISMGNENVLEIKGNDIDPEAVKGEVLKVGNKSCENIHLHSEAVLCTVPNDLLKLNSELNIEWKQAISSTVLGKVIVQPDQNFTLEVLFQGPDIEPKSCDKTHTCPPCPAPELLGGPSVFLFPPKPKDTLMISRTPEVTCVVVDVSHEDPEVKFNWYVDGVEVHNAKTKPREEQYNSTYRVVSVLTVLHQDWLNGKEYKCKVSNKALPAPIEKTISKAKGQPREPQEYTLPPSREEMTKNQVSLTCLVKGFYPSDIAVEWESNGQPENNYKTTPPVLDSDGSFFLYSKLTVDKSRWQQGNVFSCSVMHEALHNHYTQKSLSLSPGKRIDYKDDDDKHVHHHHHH
T3 sequence (P16056 25-931): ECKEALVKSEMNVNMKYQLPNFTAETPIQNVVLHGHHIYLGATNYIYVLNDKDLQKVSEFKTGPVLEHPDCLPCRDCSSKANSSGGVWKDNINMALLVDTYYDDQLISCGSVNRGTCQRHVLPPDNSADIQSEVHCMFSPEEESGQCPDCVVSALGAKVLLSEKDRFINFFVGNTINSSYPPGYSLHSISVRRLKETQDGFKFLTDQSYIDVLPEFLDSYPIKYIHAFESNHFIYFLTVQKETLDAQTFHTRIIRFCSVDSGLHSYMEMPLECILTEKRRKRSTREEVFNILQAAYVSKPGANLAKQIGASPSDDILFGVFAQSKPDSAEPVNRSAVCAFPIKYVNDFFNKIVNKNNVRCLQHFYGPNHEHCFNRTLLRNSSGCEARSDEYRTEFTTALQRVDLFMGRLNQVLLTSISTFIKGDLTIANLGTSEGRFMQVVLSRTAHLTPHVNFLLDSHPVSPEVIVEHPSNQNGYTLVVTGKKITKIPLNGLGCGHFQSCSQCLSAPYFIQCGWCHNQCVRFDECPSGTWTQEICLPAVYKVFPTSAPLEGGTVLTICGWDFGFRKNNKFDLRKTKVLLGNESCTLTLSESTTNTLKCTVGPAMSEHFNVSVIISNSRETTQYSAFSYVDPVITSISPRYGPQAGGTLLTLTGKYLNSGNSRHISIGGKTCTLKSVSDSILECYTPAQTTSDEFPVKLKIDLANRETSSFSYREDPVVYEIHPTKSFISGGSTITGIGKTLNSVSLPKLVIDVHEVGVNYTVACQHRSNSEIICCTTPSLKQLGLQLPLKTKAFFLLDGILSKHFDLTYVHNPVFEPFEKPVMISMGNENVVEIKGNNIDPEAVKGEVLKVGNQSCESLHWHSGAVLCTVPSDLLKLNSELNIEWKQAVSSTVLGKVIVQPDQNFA

B1: C8-6 (antibody, human IgG2, kappa, V domains shown)
VH: QVQLVQSGAEVKKPGASVKVSCKASGYTFTDYYMHWVRQAPGQGLEWMGRVNPNRGGTTYNQKFEGRVTMTTDTSTSTAYMELRSLRSDDTAVYYCARTNWLDYWGQGTTVTVSS
VL: DIQMTQSPSSLSASVGDRVTITCSVSSSVSSIYLHWYQQKPGKAPKLLIYSTSNLASGVPSRFSGSGSGTDFTLTISSLQPEDFATYYCIQYSGYPLTFGGGTKVEIKR
B1 was tested, and the “3H-Thymidine Incorporation in Caki-1 Cells in the Absence of HGF (AVG CPM), antibody dose 0.1 ng/mL” value (human c-Met [1]) was 16100 CPM, the “3H-Thymidine Incorporation in Caki-1 Cells in the Absence of HGF (AVG CPM), antibody dose 0.4 ng/mL” value (human c-Met [1]) was 14600 CPM and the “3H-Thymidine Incorporation in Caki-1 Cells in the Absence of HGF (AVG CPM), antibody dose 2.6 ng/mL” value (human c-Met [1]) was 14100 CPM. The “3H-Thymidine Incorporation in Caki-1 Cells in the Absence of HGF (AVG CPM), antibody dose 15.4 ng/mL” value (human c-Met [1]) was 13700 CPM, the “3H-Thymidine Incorporation in Caki-1 Cells in the Absence of HGF (AVG CPM), antibody dose 92.6 ng/mL” value (human c-Met [1]) was 12800 CPM and the “3H-Thymidine Incorporation in Caki-1 Cells in the Absence of HGF (AVG CPM), antibody dose 555.6 ng/mL” value (human c-Met [1]) was 13500 CPM. The “3H-Thymidine Incorporation in Caki-1 Cells in the Absence of HGF (AVG CPM), antibody dose 3333.3 ng/mL” value (human c-Met [1]) was 13200 CPM, the “3H-Thymidine Incorporation in Caki-1 Cells in the Absence of HGF (AVG CPM), antibody dose 20000.0 ng/mL” value (human c-Met [1]) was 13200 CPM and the “3H-Thymidine Incorporation in Primary Human Hepatocytes in the Absence of HGF (average), dose 0.0032 ug/mL” value (human c-Met [2]) was 736. The “3H-Thymidine Incorporation in Primary Human Hepatocytes in the Absence of HGF (average), dose 0.016 ug/mL” value (human c-Met [2]) was 770, the “3H-Thymidine Incorporation in Primary Human Hepatocytes in the Absence of HGF (average), dose 0.08 ug/mL” value (human c-Met [2]) was 792 and the “3H-Thymidine Incorporation in Primary Human Hepatocytes in the Absence of HGF (average), dose 0.4 ug/mL” value (human c-Met [2]) was 802. The “3H-Thymidine Incorporation in Primary Human Hepatocytes in the Absence of HGF (average), dose 2 ug/mL” value (human c-Met [2]) was 892, the “3H-Thymidine Incorporation in Primary Human Hepatocytes in the Absence of HGF (average), dose 10 ug/mL” value (human c-Met [2]) was 1040 and the “Tubular Morphogenesis Agonist activity (fold stimulation) in HepG2 cells, antibody 50 ug/ml” value (human c-Met [3]) was 1.2 fold stimulation. The “Percent of DU145 Cells in Colonies (scatter assay), antibody 20 ug/mL” value (human c-Met [4]) was 23.3%, the “Staurosporine-Induced Apoptosis in Caki-1 Cells, Average A450 nm, antibody dose 3 ng/mL” value (human c-Met [5]) was 1.09 A450 nm and the “Staurosporine-Induced Apoptosis in Caki-1 Cells, Average A450 nm, antibody dose 30 ng/mL” value (human c-Met [5]) was 1.02 A450 nm. The “Staurosporine-Induced Apoptosis in Caki-1 Cells, Average A450 nm, antibody dose 300 ng/mL” value (human c-Met [5]) was 0.97 A450 nm, the “Staurosporine-Induced Apoptosis in Caki-1 Cells, Average A450 nm, antibody dose 3000 ng/mL” value (human c-Met [5]) was 0.92 A450 nm and the “Staurosporine-Induced Apoptosis in Caki-1 Cells, Average A450 nm, antibody dose 30000 ng/mL” value (human c-Met [5]) was 0.96 A450 nm.

B2: C8-H241 (antibody, human IgG2, kappa, V domains shown)
VH: QVQLVQSGAEVKKPGASVKVSCKASGYTFTDYYMHWVRQAPGQGLEWMGRVNPNRRGTTYNQKFEGRVTMTTDTSTSTAYMELRSLRSDDTAVYYCARANWLDYWGQGTTVTVSS
VL: DIQMTQSPSSLSASVGDRVTITCSVSSSVSSIYLHWYQQKPGKAPKLLIYSTSNLASGVPSRFSGSGSGTDFTLTISSLQPEDFATYYCQVYSGYPLTFGGGTKVEIKR
notes: Called IgG4, kappa; also called Mab C8-H241
In the case of B2, the binding result (Rat c-Met-Flis-Fc ECD) is reported as “no binding”, the binding result (mouse c-Met ECD) is reported as “no binding (tested: 100 nM)” and the “Average A450 nm” value (Human c-Met-Flis-Fc ECD [6]) is reported as 0.3 A450 nm. The “Average A450 nm” value (Human c-Met-Flis-Fc ECD [7]) was 0.317 A450 nm, the “Average A450 nm” value (Human c-Met-Flis-Fc ECD [8]) was 0.317 A450 nm and the “Average A450 nm” value (Human c-Met-Flis-Fc ECD [9]) was 0.484 A450 nm. The “Average A450 nm” value (Human c-Met-Flis-Fc ECD [10]) was 0.902 A450 nm, the “Average A450 nm” value (Human c-Met-Flis-Fc ECD [11]) was 2.86 A450 nm and the “Average A450 nm” value (Human c-Met-Flis-Fc ECD [12]) was 4 A450 nm. For the same binder, the “Average A450 nm” value (Human c-Met-Flis-Fc ECD [13]) was 4 A450 nm, the “Average A450 nm” value (Human c-Met-Flis-Fc ECD [14]) was 4 A450 nm and the “Average A450 nm” value (Human c-Met-Flis-Fc ECD [15]) was 4 A450 nm. For the same binder, the “Average A450 nm” value (Human c-Met-Flis-Fc ECD [16]) was 4 A450 nm, the “Average A450 nm” value (Human c-Met-Flis-Fc ECD [17]) was 4 A450 nm and the Kd (Human c-Met-Flis-Fc ECD [18]) was less than 0.1 nM. For the same binder, the Kd [19] was less than 0.2 nM.
